Assay results from patent US20240043533A1 (NGM BIOPHARMACEUTICALS, published 2024).
Residue numbers refer to the chain shown, from its start. One block for each binder: values may come before it.

Assays:
[1] = molecular target: T1, extracellular domain of cyno ILT3 (cynoILT3-ECD) (cynomolgus monkey); assay: SPR (Biacore), antibody captured via anti-Fc on CM5 chip, soluble ILT3-ECD injected, 37 C
T1 chain: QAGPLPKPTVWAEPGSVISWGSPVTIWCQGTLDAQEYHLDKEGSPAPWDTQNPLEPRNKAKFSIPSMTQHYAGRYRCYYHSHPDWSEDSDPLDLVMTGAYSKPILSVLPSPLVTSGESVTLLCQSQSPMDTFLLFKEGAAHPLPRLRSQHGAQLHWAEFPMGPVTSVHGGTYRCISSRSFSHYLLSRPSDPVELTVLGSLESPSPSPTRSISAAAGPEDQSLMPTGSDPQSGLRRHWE
Procedure: (§1) The binding affinities of anti-ILT3 antibodies to human ILT3 and cyno ILT3 were measured using a Biacore system (GE Healthcare LifeSciences). Briefly, anti-Fc antibody (Sigma-Aldrich) was immobilized on all four flow cells of a CM5 chip using amine coupling reagents (GE Healthcare LifeSciences). Antibodies were captured on flow cells 2, 3, and 4 using flow cell 1 as a reference. Concentrations ranging from 3.3-10 nM of human or cyno ILT3-ECD were injected at a flow rate of 50 μL/min at 37° C. Kinetic data were collected over time and fit using the simultaneous global fit equation to yield affinity constants (KD values) for each antibody.
(§2) The binding affinity of Hz5A7.v5 to human ILT3 and cyno ILT3 was determined using a Biacore system as described herein and compared with the binding affinity of the parental chimeric 5A7 (ch5A7) antibody and humanized 5A7 without any CDR modifications (Hz5A7.v1) (see Table 12).

[2] = molecular target: T2, extracellular domain of human ILT3 (huILT3-ECD) (human, UniProt Q8NHJ6 22-259); assay: as above
T2 construct: also called human ILT3-ECD
Procedure: as §1, §2

human LILRA1 = molecular target: T3, human LILRA1 (human, UniProt O75019 17-489); assay: FACS on cells expressing human LILRA1, labeled anti-mouse Fc secondary antibody
T3 construct: whole, on cells
Procedure: (§3) ELISA assays were used to screen antibodies against human ILT3 and human LILRA1,2,4-6. […] These antibodies were rescreened by FACS for binding to human ILT3 and cyno ILT3 expressed on HEK-293T cells. The antibodies that bound to both human and cyno ILT3 were selected. This subset of antibodies were screened by FACS against human LILRB1-5 (ILT2, ILT4, ILT5, ILT3, and LILRB5, respectively), cyno LILRB5, and human LILRA1,2,4-6. For FACS screening, each antibody was incubated with cells expressing human ILT3, cyno ILT3, one of the LILRA proteins, or one of the LILRB proteins for 30 minutes at 4° C. After washing, the cells were incubated with labeled anti-mouse Fc antibody for 30 minutes at 4° C. After washing, cells were analyzed on a flow cytometer. Antibodies were selected on the criteria of binding to human ILT3, cyno ILT3, no or limited binding to other LILRB proteins, and no or limited binding to LILRA proteins.

human LILRA6 = molecular target: T4, human LILRA6 (human, UniProt Q6PI73 24-447, limits assumed); assay: FACS on cells expressing human LILRA6, labeled anti-mouse Fc secondary antibody
T4 construct: Read out of the printed 'LILRA1,2,4-6'
Procedure: as §3

[3] = molecular target: T1, extracellular domain of cyno ILT3 …; assay: SPR (Biacore), antibody captured via anti-Fc on CM5 chip, soluble ILT3-ECD injected, 37 C
Procedure: as §1

[4] = molecular target: T2, extracellular domain of human ILT3 …; assay: as above; remark: listed apart in the source
Procedure: as §1

LILRB4 = molecular target: T5, LILRB4; assay: FACS on cells expressing human LILRB4 (ILT3), labeled anti-mouse Fc secondary antibody
T5 construct: the construct expressed on the cells is not described further; also called human ILT3 expressed on cells for the FACS screen; ILT3
Procedure: as §3

LILRB3 = molecular target: T6, LILRB3 (human, UniProt O75022); assay: FACS on cells expressing human LILRB3, labeled anti-mouse Fc secondary antibody
T6 construct: expressed on the cell surface; also called human LILRB3; ILT5
Procedure: as §3

human LILRA4 = molecular target: T7, human LILRA4 (human, UniProt P59901 24-499); assay: FACS on cells expressing human LILRA4, labeled anti-mouse Fc secondary antibody
T7 construct: whole, on cells
Procedure: as §3

human LILRA2 = molecular target: T8, human LILRA2 (human, UniProt Q8N149 24-483); assay: FACS on cells expressing human LILRA2, labeled anti-mouse Fc secondary antibody
T8 construct: whole, on cells
Procedure: as §3

LILRB5 = molecular target: T9, LILRB5 (human, UniProt O75023); assay: FACS on cells expressing human LILRB5, labeled anti-mouse Fc secondary antibody
T9 construct: expressed on the cell surface; also called human LILRB5; CD85C
Procedure: as §3

human LILRB2 = molecular target: T10, human LILRB2 (human, UniProt Q8N423 22-597); assay: FACS on cells expressing human LILRB2, labeled anti-mouse Fc secondary antibody
T10 construct: whole, on cells; also called ILT4
Procedure: as §3

Cyno LILRB5 = molecular target: T11, Cyno LILRB5 (Macaca fascicularis, UniProt A0A2K5VIP6); assay: FACS on cells expressing cyno LILRB5, labeled anti-mouse Fc secondary antibody
T11 construct: expressed on the cell surface; also called cynomolgus LILRB5
Procedure: as §3

human LILRA5 = molecular target: T12, human LILRA5 (human, UniProt A6NI73 42-299); assay: FACS on cells expressing human LILRA5, labeled anti-mouse Fc secondary antibody
T12 construct: whole, on cells
Procedure: as §3

[5] = molecular target: T1, extracellular domain of cyno ILT3 …; assay: SPR (Biacore), antibody captured via anti-Fc on CM5 chip, soluble ILT3-ECD injected
Procedure: as §1
(§4) The binding affinities of various Hz48A6 and Hz45G10 antibodies to human ILT3 and cyno ILT3 were also determined using a Biacore system as described herein. Humanized antibodies comprising various combinations of a heavy chain variable region and a light chain variable region and a human Fc domain were tested, and compared with the binding affinity of the parental chimeric antibody (48A6 chimera comprising mouse 48A6 heavy and light variable regions and a human Fc domain, or 45G10 chimera comprising mouse 45G10 heavy and light variable regions and a human Fc domain).

[6] = molecular target: T2, extracellular domain of human ILT3 …; assay: as above
Procedure: as §1, §4

T9 sequence (O75023 24-590 limits assumed): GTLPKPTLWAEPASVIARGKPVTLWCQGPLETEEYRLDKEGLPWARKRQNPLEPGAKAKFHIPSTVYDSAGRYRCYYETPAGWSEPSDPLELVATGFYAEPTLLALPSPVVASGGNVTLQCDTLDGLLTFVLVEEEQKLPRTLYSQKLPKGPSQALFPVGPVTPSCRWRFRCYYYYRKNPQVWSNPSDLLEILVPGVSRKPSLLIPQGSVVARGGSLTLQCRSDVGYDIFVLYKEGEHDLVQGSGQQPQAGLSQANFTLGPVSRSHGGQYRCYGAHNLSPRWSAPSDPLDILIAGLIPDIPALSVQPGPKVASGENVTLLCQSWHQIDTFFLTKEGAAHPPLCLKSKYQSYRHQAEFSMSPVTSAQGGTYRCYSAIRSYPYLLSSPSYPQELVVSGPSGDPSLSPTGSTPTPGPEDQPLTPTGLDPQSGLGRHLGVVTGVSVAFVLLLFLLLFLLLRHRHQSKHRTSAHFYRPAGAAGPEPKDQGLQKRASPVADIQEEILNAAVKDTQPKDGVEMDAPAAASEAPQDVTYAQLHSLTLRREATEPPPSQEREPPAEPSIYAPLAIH
T8 sequence (Q8N149 24-483): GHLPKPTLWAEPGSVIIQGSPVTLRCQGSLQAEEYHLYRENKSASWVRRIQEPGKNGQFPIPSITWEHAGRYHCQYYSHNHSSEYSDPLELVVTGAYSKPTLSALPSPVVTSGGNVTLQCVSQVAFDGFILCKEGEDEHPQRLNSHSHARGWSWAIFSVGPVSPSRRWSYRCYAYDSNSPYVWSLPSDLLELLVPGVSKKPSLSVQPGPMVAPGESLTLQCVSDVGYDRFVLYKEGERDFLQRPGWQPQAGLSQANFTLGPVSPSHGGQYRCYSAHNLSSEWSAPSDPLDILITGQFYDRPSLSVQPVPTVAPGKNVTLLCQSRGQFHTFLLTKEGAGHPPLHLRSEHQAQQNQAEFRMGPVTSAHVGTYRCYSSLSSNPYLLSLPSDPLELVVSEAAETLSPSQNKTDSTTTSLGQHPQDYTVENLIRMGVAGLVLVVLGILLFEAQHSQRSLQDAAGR
T12 sequence (A6NI73 42-299): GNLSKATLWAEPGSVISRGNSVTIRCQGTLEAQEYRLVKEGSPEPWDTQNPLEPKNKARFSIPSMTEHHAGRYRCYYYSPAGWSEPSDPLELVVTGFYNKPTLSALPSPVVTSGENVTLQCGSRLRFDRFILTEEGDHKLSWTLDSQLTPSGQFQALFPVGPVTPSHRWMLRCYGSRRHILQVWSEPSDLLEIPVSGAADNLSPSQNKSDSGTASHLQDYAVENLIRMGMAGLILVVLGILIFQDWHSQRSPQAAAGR
T11 sequence (A0A2K5VIP6 entry or part of it): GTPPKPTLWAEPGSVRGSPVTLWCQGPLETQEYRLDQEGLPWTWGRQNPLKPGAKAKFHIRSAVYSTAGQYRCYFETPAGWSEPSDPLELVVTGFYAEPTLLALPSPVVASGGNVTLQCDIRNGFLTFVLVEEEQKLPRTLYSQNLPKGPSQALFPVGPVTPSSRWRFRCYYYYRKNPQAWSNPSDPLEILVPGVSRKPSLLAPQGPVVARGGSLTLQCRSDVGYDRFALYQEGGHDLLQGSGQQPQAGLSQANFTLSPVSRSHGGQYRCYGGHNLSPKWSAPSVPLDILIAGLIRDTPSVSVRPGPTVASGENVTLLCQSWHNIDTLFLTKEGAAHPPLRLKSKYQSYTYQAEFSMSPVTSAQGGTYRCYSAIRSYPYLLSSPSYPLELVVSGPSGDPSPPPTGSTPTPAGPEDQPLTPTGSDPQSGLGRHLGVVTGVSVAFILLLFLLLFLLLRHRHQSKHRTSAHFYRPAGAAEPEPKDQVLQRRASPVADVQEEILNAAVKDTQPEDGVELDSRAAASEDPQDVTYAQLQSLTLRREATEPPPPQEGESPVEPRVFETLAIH
T6 sequence (O75022 24-631 limits assumed): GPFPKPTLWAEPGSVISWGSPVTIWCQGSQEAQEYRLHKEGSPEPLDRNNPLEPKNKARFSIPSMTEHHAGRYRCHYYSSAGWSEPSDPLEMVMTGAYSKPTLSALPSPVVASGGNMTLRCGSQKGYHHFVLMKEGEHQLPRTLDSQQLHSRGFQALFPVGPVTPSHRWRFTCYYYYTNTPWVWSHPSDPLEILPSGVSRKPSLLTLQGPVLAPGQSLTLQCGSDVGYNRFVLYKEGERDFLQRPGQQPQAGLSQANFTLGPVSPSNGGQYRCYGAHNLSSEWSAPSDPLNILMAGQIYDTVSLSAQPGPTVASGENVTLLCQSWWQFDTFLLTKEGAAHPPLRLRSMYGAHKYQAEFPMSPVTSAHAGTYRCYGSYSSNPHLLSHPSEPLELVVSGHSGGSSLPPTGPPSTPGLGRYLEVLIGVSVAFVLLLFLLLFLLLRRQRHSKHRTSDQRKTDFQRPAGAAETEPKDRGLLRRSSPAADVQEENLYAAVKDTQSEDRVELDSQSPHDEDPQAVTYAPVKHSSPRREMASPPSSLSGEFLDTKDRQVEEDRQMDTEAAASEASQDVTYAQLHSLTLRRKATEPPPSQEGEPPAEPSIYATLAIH
T4 sequence (Q6PI73 24-447 limits assumed): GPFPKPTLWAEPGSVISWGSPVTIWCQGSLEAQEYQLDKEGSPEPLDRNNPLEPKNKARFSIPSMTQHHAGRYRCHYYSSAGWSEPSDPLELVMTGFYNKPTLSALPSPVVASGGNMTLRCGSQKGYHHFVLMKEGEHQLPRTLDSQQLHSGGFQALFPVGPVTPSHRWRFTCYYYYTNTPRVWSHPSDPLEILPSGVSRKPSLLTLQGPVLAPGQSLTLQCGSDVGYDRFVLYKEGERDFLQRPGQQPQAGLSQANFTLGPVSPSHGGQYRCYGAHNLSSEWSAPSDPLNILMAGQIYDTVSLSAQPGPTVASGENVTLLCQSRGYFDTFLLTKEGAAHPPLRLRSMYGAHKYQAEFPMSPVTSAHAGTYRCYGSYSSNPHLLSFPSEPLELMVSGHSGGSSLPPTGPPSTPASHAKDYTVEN
T5 sequence (receptor, as listed by the source limits assumed): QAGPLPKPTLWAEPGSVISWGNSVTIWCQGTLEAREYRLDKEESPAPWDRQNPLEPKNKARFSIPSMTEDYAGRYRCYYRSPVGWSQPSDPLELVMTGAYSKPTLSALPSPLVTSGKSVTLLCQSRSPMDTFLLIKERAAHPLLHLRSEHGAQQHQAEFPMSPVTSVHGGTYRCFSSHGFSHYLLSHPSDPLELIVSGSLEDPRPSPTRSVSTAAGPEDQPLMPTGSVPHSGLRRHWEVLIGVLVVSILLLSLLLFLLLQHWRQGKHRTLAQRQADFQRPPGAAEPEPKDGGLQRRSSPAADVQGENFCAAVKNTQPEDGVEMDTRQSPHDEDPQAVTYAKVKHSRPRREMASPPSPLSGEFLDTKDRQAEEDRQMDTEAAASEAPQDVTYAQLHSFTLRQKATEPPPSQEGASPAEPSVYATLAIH
T7 sequence (P59901 24-499): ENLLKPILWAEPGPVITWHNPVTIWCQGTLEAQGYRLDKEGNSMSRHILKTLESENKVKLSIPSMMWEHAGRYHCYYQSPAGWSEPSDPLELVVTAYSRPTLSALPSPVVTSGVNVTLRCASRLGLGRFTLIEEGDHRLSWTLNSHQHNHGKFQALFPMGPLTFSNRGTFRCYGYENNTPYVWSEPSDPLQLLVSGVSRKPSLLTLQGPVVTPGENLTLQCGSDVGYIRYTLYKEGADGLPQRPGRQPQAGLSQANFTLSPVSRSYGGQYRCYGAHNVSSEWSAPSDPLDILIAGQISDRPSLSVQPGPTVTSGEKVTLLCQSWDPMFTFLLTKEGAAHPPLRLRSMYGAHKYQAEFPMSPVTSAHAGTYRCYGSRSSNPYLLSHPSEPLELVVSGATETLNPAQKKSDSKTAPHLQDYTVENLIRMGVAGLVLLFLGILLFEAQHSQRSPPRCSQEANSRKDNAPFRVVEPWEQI
T10 sequence (Q8N423 22-597): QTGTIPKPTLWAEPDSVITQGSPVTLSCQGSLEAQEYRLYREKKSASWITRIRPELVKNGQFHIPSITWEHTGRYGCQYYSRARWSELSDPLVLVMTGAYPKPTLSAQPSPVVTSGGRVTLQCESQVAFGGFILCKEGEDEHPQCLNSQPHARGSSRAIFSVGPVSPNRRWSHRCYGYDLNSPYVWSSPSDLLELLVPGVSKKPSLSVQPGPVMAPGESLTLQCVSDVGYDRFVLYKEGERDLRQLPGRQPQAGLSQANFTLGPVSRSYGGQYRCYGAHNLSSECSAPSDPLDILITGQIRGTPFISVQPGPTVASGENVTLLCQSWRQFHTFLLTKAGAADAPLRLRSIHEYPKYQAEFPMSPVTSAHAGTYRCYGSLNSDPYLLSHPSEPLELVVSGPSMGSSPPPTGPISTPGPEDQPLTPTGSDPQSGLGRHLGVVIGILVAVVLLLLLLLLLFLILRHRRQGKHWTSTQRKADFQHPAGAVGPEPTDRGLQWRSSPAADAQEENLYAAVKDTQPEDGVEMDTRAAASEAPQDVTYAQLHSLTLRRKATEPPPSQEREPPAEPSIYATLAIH
T3 sequence (O75019 17-489): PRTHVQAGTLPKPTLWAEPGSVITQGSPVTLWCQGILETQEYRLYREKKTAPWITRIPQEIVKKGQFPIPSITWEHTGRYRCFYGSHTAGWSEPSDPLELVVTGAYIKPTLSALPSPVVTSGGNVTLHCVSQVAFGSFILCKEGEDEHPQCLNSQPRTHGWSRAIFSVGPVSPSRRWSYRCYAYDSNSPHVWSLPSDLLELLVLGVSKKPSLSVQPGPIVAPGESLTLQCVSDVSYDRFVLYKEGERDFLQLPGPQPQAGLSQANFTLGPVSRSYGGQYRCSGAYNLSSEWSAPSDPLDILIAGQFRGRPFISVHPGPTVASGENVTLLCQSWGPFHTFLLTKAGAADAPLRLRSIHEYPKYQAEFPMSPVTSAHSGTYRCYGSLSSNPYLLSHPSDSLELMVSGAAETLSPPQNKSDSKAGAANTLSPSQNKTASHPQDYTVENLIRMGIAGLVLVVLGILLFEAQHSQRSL

B1: Hz5A7.v1 (humanized 5A7 without any CDR modifications) (antibody, V domains shown)
VH: EVQLVESGGGLVQPGGSLRLSCAASGFTFSSYGMSWVRQAPGKGLEWVATISGGGSYTNYPDSVKGRFTISRDNAKNSLYLQMNSLRAEDTAVYYCARREWRMTLYAMDYWGQGTTVTVSS
VL: DIQLTQSPSFLSASVGDRVTITCRASESVDSYGNSFMHWYQQKPGKAPKLLIYLTSNLESGVPSRFSGSGSGTEFTLTISSLQPEDFATYYCQQNNEDPFTFGQGTKLEIK
- Kd [1]: 0.65 nM
- koff [1]: 0.0077 s⁻¹
- kon [1]: 1.2e+07 M⁻¹ s⁻¹
- Kd [2]: 0.48 nM
- koff [2]: 0.0012 s⁻¹
- kon [2]: 2.5e+06 M⁻¹ s⁻¹

B2: anti-ILT3 antibody 53F10 (antibody, V domains shown)
VH: EVQVVESGGGLVKPGGSLKLSCAASGFTFSDYGMHWVRQAPEKGLEWVAYISTGIITVYYADTVKGRFTMSRDNAKNTLFLQMTSLRSEDTAIYYCARADGRGAMDYWGQGTSVIVSS
VL: DIQMTQTTSSLSASLGDRVTISCRASQDISNFLNWYQQKPDGTVTLLIYYTSRLHSGVPSRFSGSGSGTDYSLTISNLEQEDFATYFCQQGNTLPWTFGGGTKLEIK
notes: Mouse monoclonal antibody from hybridoma
- binding result (human LILRA1): no binding (tested: log [Ab] about -7.2 M (about 6e-8 M))
- binding result (human LILRA6): no binding (tested: log [Ab] about -7.2 M (about 6e-8 M))
- Kd [3]: 9.4 nM
- koff [3]: 0.0055 s⁻¹
- kon [3]: 590000 M⁻¹ s⁻¹
- Kd [4]: 0.24 nM
- koff [4]: 8e-05 s⁻¹
- kon [4]: 330000 M⁻¹ s⁻¹
- EC50 (read off the curve) (LILRB4): ~400 pM
- binding result (LILRB3): no binding (tested: log [Ab] about -7.2 M (about 6e-8 M))
- binding result (human LILRA4): no binding (tested: log [Ab] about -7.2 M (about 6e-8 M))
- binding result (human LILRA2): no binding (tested: log [Ab] about -7.2 M (about 6e-8 M))
- binding result (LILRB5): no binding (tested: log [Ab] about -7.2 M (about 6e-8 M))
- binding result (human LILRB2): no binding (tested: log [Ab] about -7.2 M (about 6e-8 M))
- binding result (Cyno LILRB5): no binding (tested: log [Ab] about -7.2 M (about 6e-8 M))
- binding result (human LILRA5): no binding (tested: log [Ab] about -7.2 M (about 6e-8 M))

B4: anti-ILT3 antibody 3A3 (antibody, V domains shown)
VH: QVQLKESGPGLVAPSQSLSITCTVSGFSLTSYGVHWVRQPPGKGLEWLGVIWPGGTINYNSALMSRLSISKDNSKSQVFLKLNSLQTDDTAMYYCASDKYDGGWFAYWGQGTLVTVSA
VL: DIVMTQSQKFMSTSVGDRVSITCKASQNVRTAVAWYQQKPGQSPEALIYLASNRHTGVPDRFTGSGSGTDFSLSISNVQSEDLADYFCLQHLNYPLTFGSGTKLEIK
notes: as for B2
- Kd [3]: 6.3 nM
- koff [3]: 0.021 s⁻¹
- kon [3]: 3.4e+06 M⁻¹ s⁻¹
- Kd [4]: 2 nM
- koff [4]: 0.00065 s⁻¹
- kon [4]: 330000 M⁻¹ s⁻¹

B6: 48A6 chimera (antibody, V domains shown)
VH: EVQLVESGGDLMKPGGSLKLSCAASGFTFSSYGMSWVRQTPDKRLEWVATISSGGTYTFYPDSVKGRFTISRDNAKNTLYLQMSSLKSEDTAMYYCARRGWLLHYYAMDYWGQGTSVTVSS
VL: NIVLTQSPASLAVSLGQRATISCRPSESVDSFGNSFMHWFQQKPGQPPKLLIYLSSKLESGVPARFSGSGSRTDFTLTIDPVEADDAATYYCQQHNEDPFTFGSGTKLEIK
notes: also called parental chimeric 48A6
- Kd [5]: 54 nM
- koff [5]: 0.11 s⁻¹
- kon [5]: 1.99e+06 M⁻¹ s⁻¹
- Kd [6]: 0.066 nM
- koff [6]: 0.000868 s⁻¹
- kon [6]: 1.31e+07 M⁻¹ s⁻¹

B7: Hz45G10 B1/A4 (antibody, V domains shown)
VH: EVQLVESGGGLVKPGGSLRLSCAASGFTFSDYGMHWVRQAPGKGLEWVSYIFSGSSTIYYADTVKGRFTISRDNAKNSLYLQMNSLRAEDTAVYYCARADGRGAMDYWGQGTLVTVSS
VL: DIQMTQSPSSLSASVGDRVTITCRASQDISKFLNWYQQKPGKAPKLLIYYTSRLHSGVPSRFSGSGSGTDFTFTISSLQPEDIATYFCQQGNTLPWTFGGGTKLEIK
- Kd [5]: 76 nM
- koff [5]: 0.09 s⁻¹
- kon [5]: 1.2e+06 M⁻¹ s⁻¹
- Kd [6]: 0.2 nM
- koff [6]: 0.00026 s⁻¹
- kon [6]: 1.3e+06 M⁻¹ s⁻¹

More lines, now with the values ahead:

- Kd [3]: 5 nM
- koff [3]: 0.00076 s⁻¹
- kon [3]: 150000 M⁻¹ s⁻¹
- Kd [4]: 0.13 nM
- koff [4]: 5.1e-05 s⁻¹
- kon [4]: 390000 M⁻¹ s⁻¹
B3: anti-ILT3 antibody 45G10 (antibody, V domains shown)
VH: B7 VH with R19K, G42E, S49A, S78T, Y80F, N84T, A88S, V93M, L113S
VL: B2 VL with I2V, N31K, E79D, F83I
notes: as for B2

- Kd [3]: 1.9 nM
- koff [3]: 0.00028 s⁻¹
- kon [3]: 150000 M⁻¹ s⁻¹
- Kd [4]: 8.5 nM
- koff [4]: 0.00094 s⁻¹
- kon [4]: 110000 M⁻¹ s⁻¹
B5: anti-ILT3 antibody 12A12 (antibody, V domains shown)
VH: EVQLQQSGPELVKPGASVKISCKASGYTFTDYNMDWVKQSHGKSLEWIGYIYPNNGGTGYNQKFNSKATLTVDKSSSTAYMELHSLTSEDSAVYYCASSPYYDYVGSYAMDYWGQGTSVTVSS
VL: QIVLTQSPAIMSASLGERVTMTCTASSSVSSSYLHWYQQKPGSSPKLWIYSTSNLASGVPARFSGSGSGTSYSLTISSMEAEDAATYYCHQYHRSPRTFGGGTKLEIK
notes: as for B2
